B1: 3R02 bivalent (ssDNA)
DNA: TGTGGGGGTGGACTGGGTGGGTACCTTTTTTTTTTTGTGGGGGTGGACTGGGTGGGTACC

Tests used:
[1] = biological target: T1, VEGF165 (vascular endothelial growth factor 165) (Homo sapiens, UniProt P15692-4 P15692-4:27-191); assay: SPR; no binding capacity; TBS, 20 C; conditions: tags: R&D Systems, expressed in Sf21 insect cells; chain copies: 2 (inferred, homodimer); G4 predicted
Description: (§1) The capacity of each oligonucleotide to bind to VEGF was evaluated using Biacore T200 (GE Healthcare Japan, Japan) by measuring SPR on a CM5 sensor chip. VEGF was dissolved in 10 mM acetate buffer (pH 6.0), and VEGF (about 1000 RU) was covalently bound to the CM5 sensor chip using an amine coupling kit. A non-labeled oligonucleotide (1 µM) was dissolved in Tris-buffered saline (TBS: 10 mM Tris-HCl, 100 mM NaCl, 5 mM KCl; pH 7.4), and the resulting solution was heated at 95° C. for 5 minutes, followed by allowing the solution to cool slowly. Under these conditions, each oligonucleotide is folded to form its specific secondary structure. Various concentrations of the oligonucleotide diluted with TBS was injected at a flow rate of 20 µl/minute at 20° C. onto the CM5 chip on which VEGF was immobilized. Binding between the immobilized VEGF and the oligonucleotide was monitored. By injecting NaCl (1 M), the CM5 chip was regenerated. Using Biacore evaluation software, the association rate and the dissociation rate were approximated to calculate the K_d value.

[2] = biological target: T1, VEGF165 (vascular endothelial growth …); assay: SPR; VEGF immobilized on CM5; TBS (10 mM Tris-HCl, 100 mM NaCl, 5 mM KCl, pH 7.4), 20 C; conditions: tags: R&D Systems, expressed in Sf21 insect cells; chain copies: 2 (inferred, homodimer)
[3] = biological target: T1, VEGF165 (vascular endothelial growth …); assay: SPR; VEGF immobilized on CM5; TBS with 5 mM KCl, pH 7.4, 20 C; conditions: tags: R&D Systems, expressed in Sf21 insect cells, chain copies: 2 (inferred, homodimer)
Description: as §1

T1 sequence (P15692 other isoform, or with tags, fused parts or gaps): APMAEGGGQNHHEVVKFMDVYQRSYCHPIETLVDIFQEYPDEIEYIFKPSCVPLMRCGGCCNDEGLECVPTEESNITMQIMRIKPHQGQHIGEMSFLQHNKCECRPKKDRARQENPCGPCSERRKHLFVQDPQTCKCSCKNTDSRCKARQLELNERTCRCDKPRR

Binder	binding result [1]	also measured
TGTGGGGGGGGTGGGGGTGGACCGC (ssDNA) [3R#06]	no binding	
TGTGGGGGTGCGCGGGCCGGGCAGG (ssDNA) [2R#11]	no binding	
B1		Kd [2]: 0.03 nM
TGTGGGGGTGGACGGGCCGAGTACG (ssDNA) [3R03 (3R#03)]		Kd ([3]; G4 predicted): 1.7 nM
TGTGGGGGAGGACGGGCGGGGATGC (ssDNA) [3R#01]		Kd ([3]; G4 predicted): 8.8 nM
TGTGCGGGGGGTGGGGGTGGTTCCC (ssDNA) [3R#04]	no binding	
TGTGCGGGTGGCCGGGGTGGCCTGC (ssDNA) [3R#07]	no binding	
TGTGGGGGTGGACGGGCCGGGTAGA (ssDNA) [VEap121]		Kd ([3]; G4): 4.7 nM
TGTGGGGTTGGACGGACCGGGTAGG (ssDNA) [2R#08]	no binding	
TGTGGGGTTGGACGGGCCGTGTAGA (ssDNA) [2R#10]	no binding	
TGTGGGGGTGGACTGGGTGGGTACC (ssDNA) [3R02 (3R#02)]		Kd [3]: 0.3 nM
TGTGGGGGTGGTTGGGCGGGGCTGC (ssDNA) [3R09 (3R#09)]		Kd ([3]; G4 predicted): 2.4 nM
TGTGGGGCTGGGAGGTCGGGCCTGC (ssDNA) [3R#10]	no binding	
TGTGGGGATGGATGGGCCGGGCTGC (ssDNA) [3R08 (3R#08)]		Kd ([3]; G4 predicted): 1.5 nM

Source: US9683238, “Vascular endothelial growth factor-binding aptamers” (National University Corporation Tokyo University of …)
